Results reported in article PMC9951844.

Columns and labels:
[1] = target: SARS-CoV-2 Omicron BA.1 spike antigen of the SPR column (construct not stated) (SARS-CoV-2); experiment: SPR
[2] = target: SARS-CoV-2 Delta spike antigen of the SPR column (construct not stated) (SARS-CoV-2); experiment: SPR

B1: YB9-258 (antibody, V domains shown)
VH: EVQLVESGGGLIQPGGSLRLSCAASGLTVSSNYMHWVRQAPGKGLEWVSVLYAGGSAFYADSVKGRFTISRNNSKNTLYLQMNSLRAEDTAIYYCARGLGDYLDSWGQGTLVTVSS
VL: DIQMTQSPSSVSASVGDRVTITCRASQGIGSWLAWYQQKPGKAPQLLIYAASTLQSGVPPRFSGSGSGTDFTLTITSLQPEDFASYYCQQANSVLALTFGGGTKVEIK
B1 gave a Kd [1] of 6.06 nM and a Kd [2] of 0.00391 nM.
